This note sets out measurements from publication PMC6479361, “Characterization of a New DyP-Peroxidase from the Alkaliphilic Cellulomonad, Cellulomonas bogoriensis” (Molecules, 2019).

One may read the Km as the substrate concentration at which the rate is half of its maximum. As usually defined, the kcat is the number of substrate molecules converted per active site and unit of time at saturation.

Substrate in this data set: Nc1c(S(=O)(=O)O)cc(Nc2cccc(S(=O)(=O)CCOS(=O)(=O)O)c2)c2c1C(=O)c1ccccc1C2=O
The data set is described as follows: purified protein. It is filed as biochemical, Actinotalea bogoriensis. The following applies: 100 µM H2O2, 100 mM citrate pH 5, 50 nM enzyme, His-SUMO fusion.

Substitutions are numbered along the chain they refer to. Names may count otherwise.

B1: CboDyP (Actinotalea bogoriensis 69B4 = DSM 16987) (protein)
chain: VGAGAGARWGSRAPEAPQPARAAGPGDVVVPCHGEHQAGIVTPPPSFIALVALDLASTSDRASVERLLRVWTVDIERLTTGRPGLADSEPELALVPAALTVTVGFGPGLLTAAGLRHRAPAWLHPLPPFGIDRLDPAWCDGDVVLQVCADDRTTLAHAVRVLTKEAQGLASVRWVQRGFRRSPGISEPDGTSMRNLMGQVEGTANLDPRTDPDLLWHRDGEPGWLTGGTSMVVRRIAMNLDTWDELSRGAREATIGRTLRTGAPLTGRAEHDEPDLEALDDHGRPVIDLEAHIRRARPTQREETFLRRAYNYDEAPPPGRASDSGLLFVTYQRDVDAQFTPVQRRLDAADLLNEWTFPVGSAVFAVPGGWSAGEYVGQRLLEG
notes: codon-optimized synthetic gene, recombinant in E. coli NEB 10-beta; N-terminal His-SUMO fusion kept for kinetics, SUMO cleaved for crystals; Tat signal predicted, first 22 residues not visible in crystal; heme-containing; motif GXXEG
Regarding B1, the Km is on record as 17 µM and the kcat is 0.22 s⁻¹.

B2: CboDyP (Actinotalea bogoriensis 69B4 = DSM 16987; E205D) (protein)
chain: B1 chain with E201D
notes: as for B1
Take B2: the Km is listed as 36 µM and the kcat was 2.88 s⁻¹.
